Laboratory results taken from patent publication US20240409645A1.
Changes are numbered by the printed parent chain. Each block holds one binder with its values, some of them ahead of it.

Target: T1, mouse IL-2Rβ (mouse) (UniProt P16297)
T1 sequence (looked up): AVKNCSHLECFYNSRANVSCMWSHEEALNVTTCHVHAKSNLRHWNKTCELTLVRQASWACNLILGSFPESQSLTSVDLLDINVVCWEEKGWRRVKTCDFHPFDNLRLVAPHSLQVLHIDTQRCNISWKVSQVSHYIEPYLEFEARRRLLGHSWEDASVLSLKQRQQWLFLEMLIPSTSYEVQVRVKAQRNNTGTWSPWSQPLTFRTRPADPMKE
Assay: P.E. ELISA, coated protein

- P.E. binding ELISA OD: 0.047 OD450 nm
B1: FJ1427_P035MP02B09 (VHH)
VHH: EVQLVESGGGLVQAGGSLRLSCAASGRTFSTTEMGWFRQAPGKEREFVAAITWTGRGTMYAESVEGRFTISRENAKNMVYLQMNSLKPEDTAIYYCAAARRGRAAVRSEGGYDFWGQGTQVTVSS

- P.E. binding ELISA OD: 0.048 OD450 nm
B2: FJ1427_P035MP02G10 (VHH)
VHH: B1 VHH with E1Q

- P.E. binding ELISA OD: 0.047 OD450 nm
B3: FJ1427_P035MP02A11 (VHH)
VHH: B1 VHH with V121A

- P.E. binding ELISA OD: 0.049 OD450 nm
B4: FJ1427_P035MP03F08 (VHH)
VHH: EVQLVESGGGLVQTGGSLRLSCAASGGTFSRDAMAWFRQVPGKEREFVALISWSGATTNYADSVKGRFAISRDNGKNTVYLQMNRLKPADTAIYYCAADRRPMGSRSYFEPTEYDDWGQGTQVTVSS

- P.E. binding ELISA OD: 0.066 OD450 nm
B5: FJ1427_P035MP02G09 (VHH)
VHH: QVQLVESGGGLVQAGGSLRLSCTVSGDVFVRYTMAWFRQAPGKEREFVALVTDSGRTTEYVDSVKGRFTVSRDNAKNTVYLQMNNLKPEDTAVYYCAANTDYFRIRSLDANTWGQGTQVTVSS

- P.E. binding ELISA OD: 0.051 OD450 nm
B6: FJ1427_P035MP02F10 (VHH)
VHH: B5 VHH with Q1E, T23V, L50V, R104Q, L108V, A110N, T112A

- P.E. binding ELISA OD: 0.049 OD450 nm
B7: FJ1427_P035MP02E01 (VHH)
VHH: EVQLVESGGGLVQIGGSLRLSCAASGRTFSSITMAYFRQVPGKEREWVAGINFSGTRTFYADSVKGRFLISRDDAKSTMYLQMNSLKPEDTAVYYCAASPRGFYGPGNALYDYWGQGTQVTVSS

- P.E. binding ELISA OD: 0.048 OD450 nm
B9: FJ1427_P035MP02B01 (VHH)
VHH: QVQLVESGGGLVQTGGSLRLSCAASGSQFINDVMGWYRQVPGKQRELVADMDDTGSTKYADSVKGRFTILRDSVKNTAYLQMSNLKPEDTGVYYCKAGLWIKGRHFDYWGQGTQVTVSS

- P.E. binding ELISA OD: 0.048 OD450 nm
B16: FJ1427_P035MP03C03 (VHH)
VHH: QVQLVESGGGLVQPGGSLRLSCAISGGTLDSYGIGWVRQAPGKQREGVSCMSRSDDRTYYADSVKGRFTISKDSAKNTVYLQMTSLKPEDTAVYYCAAVDAYGCSLVQPTTYDFWGLGTQVTVSS

- P.E. binding ELISA OD: 0.048 OD450 nm
B18: FJ1427_P035MP02F01 (VHH)
VHH: EVQLVESGGGLVQTGGSLRLSCAVSGSRFISDVMGWYRQVPGKQRELVADMADGGSAKYADSVKGRFSILRDSVKNTVYLQMSSLKPEDTGIYYCKAGLWIAGRHSDYWGQGTQVTVSS

- P.E. binding ELISA OD: 0.047 OD450 nm
B19: FJ1427_P035MP02B10 (VHH)
VHH: QVQLVESGGGLVEAGGSLRLSCAASGRAFNNFPMGWFRQAPGKEREFVAAITWISGSTLYADSVKGRFTISRDKSKNTVYLQMSGLKPEDTALYYCAAALKTITRGQHDYTYWGQGTQVTVSS

- P.E. binding ELISA OD: 0.048 OD450 nm
B20: FJ1427_P035MP03F10 (VHH)
VHH: EVQLVESGGGLVQAGGSLRLSCAASGRDFSSYAMGWFRQAPGKEREFVVAITWTKRSTDFPDSVKGRFTISRDNAKNTVYLDMNSLKPEDTAVYYCASARGLPVTPLGDIIYWGEGTLVTVSS

- P.E. binding ELISA OD: 0.047 OD450 nm
B23: FJ1427_P035MP02C09 (VHH)
VHH: QVQLQESGGGLVQAGGSLRLSCVASGSVSSINGMAWYRQGADNQRVLVAAISRVGNTAYGDSVKGRFTISRQNARNTVYLQMNSLKPEDTAVYYCNADSWGGDDYWGQGTQVTVSS

- P.E. binding ELISA OD: 0.047 OD450 nm
B24: FJ1427_P035MP06F05 (VHH)
VHH: QVQLVESGGGLVQTGDSLRLSCAASGRSLDTTYIAWFRQAPGKERDFLAYISPRFSHTWYADSVKGRFTISRNIAKRTVDLEMNSLEPEDTAVYYCAAREHSGSTAWEHYDHWGQGTQVTVSS

- P.E. binding ELISA OD: 0.048 OD450 nm
B26: FJ1427_P035MP03F12 (VHH)
VHH: EVQLVESGGGLVQAGGSLRLSCAASGSIFSINAMAWFRQVPGMERELVAAISRDGGASVYRDSVKGRFTISRDNSKNTVYLQMNTLKPEDTAIYVCAATRAIGWTARWITTDFDFWGQGTQVTVSS

- P.E. binding ELISA OD: 0.05 OD450 nm
B28: FJ1427_P035MP02C10 (VHH)
VHH: QVQLVESGGGLVQAGGSLRLACALSGDVFVRYTMAWFRQAPGKEREFVASVTDSGRTTDYVASVQGRFTVSRDNNKNTVYLQMNSLKPEDTAVYYCAANTDYFQIRSLDRNTWGQGTQVTVSS

- P.E. binding ELISA OD: 0.051 OD450 nm
B30: FJ1427_P035MP02F09 (VHH)
VHH: B5 VHH with Q1E, T23A, V24A, L50S, E59D, R104Q, D109E, A110F

- P.E. binding ELISA OD: 0.047 OD450 nm
B32: FJ1427_P035MP02E10 (VHH)
VHH: QVQLVESGGGLVQAGGSLRLSCAAAGRAIENYPVGWFRRAPGKEREFVAAITWISGSTLYADSVKGRFTISRDNAKNTVYLQMSSLKPEDTALYYCAAALKTITRGQNDYSYWGQGTQVTVSS

- P.E. binding ELISA OD: 0.048 OD450 nm
B33: FJ1427_P035MP02B08 (VHH)
VHH: B32 VHH with Q1E, A25S, R39Q

The remaining lines, values behind:

B8: FJ1427 P035MP02C03 (VHH)
VHH: B9 VHH with Q1E, K58E
- P.E. binding ELISA OD: 0.047 OD450 nm

B10: FJ1427 P035MP02D01 (VHH)
VHH: B9 VHH with V5Q, F106S
- P.E. binding ELISA OD: 0.048 OD450 nm

B11: FJ1427 P035MP02E06 (VHH)
VHH: QVQLVESGGGSVQPGGSLRLSCAASGFTFSNYAMSWVRQAPGKGLEWVASITGFGRGTDYADSVKGRFTISRDNAEDTLYLQMNSLKPEDTAVYYCAKYSSSTYYPPTPARGRDYRGQGTQVTVSS
- P.E. binding ELISA OD: 0.048 OD450 nm

B12: FJ1427 P035MP02C01 (VHH)
VHH: B11 VHH with S11L, R19G, S30D, A49S, F54A, D59H, E76K, D77N, R113T, Q118P
- P.E. binding ELISA OD: 0.047 OD450 nm

B13: FJ1427 P035MP03A12 (VHH)
VHH: EVQLVESGGGLVQAGGSLRLSCAASGRTFSINAMGWFRQAPGKEREFVAAISRSGGSTVYVDGVKGRFTISRDNAKNTVYLQMNSLEPEDTAVYYCAATMAVGWTTRWRTADFDSWGQGTQVTVSS
- P.E. binding ELISA OD: 0.05 OD450 nm

B14: FJ1427 P035MP02A10 (VHH)
VHH: QLQLVESGGGLVQTGTSLRLSCAASGHTSRINAMGWFRQFPGKEREFVAAISRNGGSTVYVDSVKGRFTISRDNAKSTVYLQMNSLKPEDTAVYYCTATDAVGWTTRWMTADFGFWGQGTQVTVSS
- P.E. binding ELISA OD: 0.047 OD450 nm

B15: FJ1427 P035MP02D10 (VHH)
VHH: EVQLVESGGGLVQAGGSLRLSCAASGRTFSSDAKAWFRQAPGKEREFVAAITWAGRGTDYADSVKDRFTITRDNAKNMVYLQMSSLKPEDTAVYYCALNPTGVIGPGFRNSNRYDYWGQGTQVTVAS
- P.E. binding ELISA OD: 0.047 OD450 nm

B17: FJ1427_P035MP02A01 (VHH)
VHH: B18 VHH with E1Q, A23V, R28H, A60G, S68T, K86N, I92V, A102T
- P.E. binding ELISA OD: 0.048 OD450 nm

B21: FJ1427 P035MP02E11 (VHH)
VHH: QVQLQESGGGLVQAGGSLRLSCAASGRTFSNYVMAWFRQAPGKEREFVGAITQTGRGTFYADSVEGRFTISRINDKNTVYLQMNSLKPEDTAVYYCSAPRSGRAGTRNQMDYEYWGQGTQVTVSS
- P.E. binding ELISA OD: 0.048 OD450 nm

B22: FJ1427 P035MP02D11 (VHH)
VHH: QVQLQESGGGLVQAGDSLRISCAASGRIFSNYAMGWFRQAPGKETEFVAGITHLTSTTHYADSVKGRFTISRDNAKNTMHLQMNNLKPEDTALYYCAADRNIKITADWSYWGQGTQVTVAS
- P.E. binding ELISA OD: 0.047 OD450 nm

B25: FJ1427 P035MP06E05 (VHH)
VHH: QVQLVESGGELVQGGASLRLSCAASGRTFSNANMAWFRQAPEKEREFVALITWSSGSTLYADSVKGRFTISRDNARKMVYLQMNSLKPEDTAVYYCAADGPPYSGTYYRYDTYDYWGQGTQVTVSS
- P.E. binding ELISA OD: 0.046 OD450 nm

B27: FJ1427 P035MP02D09 (VHH)
VHH: B28 VHH
- P.E. binding ELISA OD: 0.056 OD450 nm

B29: FJ1427 P035MP02H10 (VHH)
VHH: B28 VHH with Q1E, A21S, L24A, A62D, Q65K, N75A, S85N, R106K
- P.E. binding ELISA OD: 0.051 OD450 nm

B31: FJ1427 P035MP02H09 (VHH)
VHH: B32 VHH with V2L, A14P
- P.E. binding ELISA OD: 0.049 OD450 nm
